Among the data in PMC10362293 are Kd and kon values, retold here.

Read-outs that look alike come from different tables or passages of the source.

For test [1], the target named is FoxP1 FKH domain, single-cysteine mutant N32C (on C61S) labelled with Oregon Green 488 (human). The experiment in a line: fluorescence polarisation. For orientation: In fluorescence polarisation assays a small probe gives low polarisation when free and higher when bound to something large.
The target is the same in test [2]. The experiment in a line: fluorescence polarisation. This is another data set of the same source.

B1: FoxP2 FKH domain, unlabeled (domain or fragment)
chain: VRPPFTYATLIRQAIMESSDRQLTLNEIYSWFTRTFAYFRRNAATWKNAVRHNLSLHKCFVRVENVKGAVWTVDEVEYQKRRSQKITGSPTL
Usually Kd stands for a measure of binding affinity in units of concentration. Higher therefore signals lower affinity. Broadly, the kon is the second-order rate constant of association. With B1, the Kd in test [1] stood at 38 µM; in test [2], 18 µM. The kon in test [2] came to 583 M⁻¹ s⁻¹.
